Measurements as given in US7094554.

Assays:
[1] = biological target: P. gossypiella (pink bollworm) midgut brush border membrane vesicle (BBMV) proteins (Pectinophora gossypiella); experiment: homologous competition assay, 125I-toxin on BBMV
[2] = biological target: P. gossypiella (pink bollworm) midgut brush border membrane vesicle (BBMV) proteins (Pectinophora gossypiella); experiment: competition with 125I-Cry1Ac on BBMV, 1000 nM unlabeled toxin
[3] = biological target: P. gossypiella (pink bollworm) midgut brush border membrane vesicle (BBMV) proteins (Pectinophora gossypiella); experiment: saturation binding, fixed 125I-toxin with increasing BBMV
[4] = biological target: P. gossypiella (pink bollworm) midgut brush border membrane vesicle (BBMV) proteins (Pectinophora gossypiella); experiment: homologous competition, 125I-Cry1Aa against unlabeled Cry1Aa on BBMV
[5] = biological target: P. gossypiella (pink bollworm) midgut brush border membrane vesicle (BBMV) proteins (Pectinophora gossypiella); experiment: competition with 125I-Cry1Ac on BBMV
[6] = biological target: P. gossypiella (pink bollworm) midgut brush border membrane vesicle (BBMV) proteins (Pectinophora gossypiella); experiment: homologous competition, 125I-Cry1Ab against unlabeled Cry1Ab on BBMV
[7] = biological target: P. gossypiella (pink bollworm) midgut brush border membrane vesicle (BBMV) proteins (Pectinophora gossypiella); experiment: homologous competition, 125I-Cry1Ac against unlabeled Cry1Ac on BBMV

| Substance | Kd [1] [µM] | concentration of binding sites (Bmax) [1] [pmol/mg] | percent reduction of 125I-Cry1Ac binding at 1000 nM [2] [%] | maximum saturable binding at 400 µg/ml of BBMV [3] [ng] | IC50 [4] [µM] | IC50 [5] [µM] | IC50 [6] [µM] | IC50 [7] [µM] | fold difference in binding compared to Cry1Ab [3] [fold] | fold higher binding compared to Cry1Aa [3] [fold] |
| --- | --- | --- | --- | --- | --- | --- | --- | --- | --- | --- |
| Cry1Aa toxin (trypsinized 60 kD toxin) (from UniProt P0A366 29-619) (ligand) | 0.0165 | 3.7 | 80 | 0.35 | 0.01 | 0.1 |  |  |  |  |
| Cry1Ab toxin (trypsinized 60 kD toxin) (from UniProt P0A370 29-620) (ligand) | 0.0124 | 3.6 | 82 | 0.05 |  | 0.1 | 0.01 |  |  |  |
| Cry1Ac toxin (trypsinized 60 kD toxin) (from UniProt P05068 29-623) (ligand) | 0.0128 | 8.6 | 95 | 1.5 |  | 0.01 |  | 0.01 | 30 | 4 |
